Tests used:
[1] = test system: synGG primer (5′-TGTGAGAGTGAAATGAGG, SEQ ID NO: 7); assay: Incorporation of 3′-O-azidomethyl nucleoside triphosphates (AM-dNTPs) by TdT variants on primer synGG in solution; type: biochemical; conditions: 1 uM primer, 2 uM TdT variant, 80 uM AM-dNTP, 10% DMSO, 5 min at 37° C.
[2] = test system: polyT primer (5′-TTTTTTTTTTTTTTTTTTTT (20T), SEQ ID NO: 8); assay: Incorporation of 3′-O-azidomethyl nucleoside triphosphates (AM-dNTPs) by TdT variants on primer polyT in solution; type: biochemical; conditions: 1 uM primer, 2 uM TdT variant, 80 uM AM-dNTP, 10% DMSO, 5 min at 37° C.

Molecule | Percentage of AM-dNTP Incorporation (percentage of extended primers) ([1]; AM-dNTP: A) [%] | Percentage of AM-dNTP Incorporation (percentage of extended primers) ([1]; AM-dNTP: C) [%] | Percentage of AM-dNTP Incorporation (percentage of extended primers) ([1]; AM-dNTP: G) [%] | Percentage of AM-dNTP Incorporation (percentage of extended primers) ([1]; AM-dNTP: T) [%] | Percentage of AM-dNTP Incorporation (percentage of extended primers) ([2]; AM-dNTP: A) [%] | Percentage of AM-dNTP Incorporation (percentage of extended primers) ([2]; AM-dNTP: C) [%] | Percentage of AM-dNTP Incorporation (percentage of extended primers) ([2]; AM-dNTP: G) [%] | Percentage of AM-dNTP Incorporation (percentage of extended primers) ([2]; AM-dNTP: T) [%]
M55: ACT-TdT variant: SEQ ID NO: 1 with substitutions A17V+Q37E+D41R+L52F+G57E+M63R+S94R+G98E+A108V+S146E+K147R+Q149R+C173G+M184T+R207L+K209H+M210Q+G284L+E289A+R325V+E328K+N345E+R351K (protein, truncated mouse TdT) NSSPSPVPGSQNVPAPVVKKISQYACQRRTTLNNYNELFTRALDILAENDEFRENEESCLAFRRASSVLKSLPFPITSMKDTEGIPCLGDKVKRIIEEIIEDGESSEVKAVLNDERYKSFKLFTSVFGVGLKTAEKWFRMGFRTLERIRSDKSLRFTQMQKAGFLYYEDLVSGVNRPEAEAVSTLVKEAVVTFLPDALVTMTGGFRLGHQTGHDVDFLITSPEATEDEEQQLLHKVTDFWKQQGLLLYCDILESTFEKFKQPSRKVDALDHFQKCFLILKLDHLRVHSAKSGQQEGKGWKAIRVDLVMCPYDRRAFALLGWTGSVQFKRDLRRYATHERKMMLDEHALYDKTKRVFLEAESEEEIFAHLGLDYIEPWERNA | 74 | 86 | 30 | 76 | 15 | 69 | 12 | 61
M56: G-TdT variant: SEQ ID NO: 1 with substitutions A17V+Q37E+D41R+L52F+G57E+M63R+I76V+S94R+G98E+A108V+S146E+Q149R+C173G+M184T+R207L+K209H+F259E+Q261R+K265G+G284L+E289A+R325V+E328N+R351K (protein, truncated mouse TdT) NSSPSPVPGSQNVPAPVVKKISQYACQRRTTLNNYNELFTRALDILAENDEFRENEESCLAFRRASSVLKSLPFPVTSMKDTEGIPCLGDKVKRIIEEIIEDGESSEVKAVLNDERYKSFKLFTSVFGVGLKTAEKWFRMGFRTLEKIRSDKSLRFTQMQKAGFLYYEDLVSGVNRPEAEAVSTLVKEAVVTFLPDALVTMTGGFRLGHMTGHDVDFLITSPEATEDEEQQLLHKVTDFWKQQGLLLYCDILESTFEKEKRPSRGVDALDHFQKCFLILKLDHLRVHSAKSGQQEGKGWKAIRVDLVMCPYDRRAFALLGWTGSVQFNRDLRRYATHERKMMLDNHALYDKTKRVFLEAESEEEIFAHLGLDYIEPWERNA | 4 | 68 | 65 | 71 | 0 | 27 | 15 | 52

Reference: patent US20220411840A1, “High Efficiency Template-Free Enzymatic Synthesis of Polynucleotides” (DNA Script, priority 2019, published 2022)
